Laboratory results from PMC11440607 (Journal of Medicinal Chemistry, 2024).

Tests used:
Format in all cases: physicochemical
[1] = Amyloid aggregation propensity by thioflavin-T (ThT) fluorescence
Text: (§1) The pH-sensitive, reversible amyloid aggregation of GLP-1 and related gastrointestinal hormones is an inherent and functionally critical property. They are stored as condensed amyloids at low pH before being released as monomeric, folded hormones at neutral pH. At the same time, the exact evolutionary origin[45] of Ex4 with its functional role as a salivary toxin in lizards remains unknown.[45],[46] The difference in secretion pathways is notable: GLP-1 is secreted into the bloodstream, while Ex4 is secreted into the alimentary canal. […] In terms of structure, the polyproline tail of the Ex4 Tc fold effectively shields the −^21LFIEWL^26− aggregation-prone region[40] (APR) of the facing α-helix, while the similar −^21EFIAWL^26− helical segment of GLP-1 remains unshielded. We therefore investigated the short- and long-term aggregation behavior of GLP-1, Ex4, and related Tc5b-modified variants using an amyloid-specific thioflavin-T fluorescence assay, CD spectroscopy, and atomic force microscopy (AFM) at 37 °C (Figure 5).
The exact peptide content percentage of the lyophilized peptides was determined by using a Nanodrop Lite UV–vis spectrophotometer at 280 nm. […] The exact concentration was determined by UV spectrometry using a Jasco V-660 spectrophotometer (Tokyo, Japan) at 412 nm with an extinction coefficient of 31.600 M^–1 cm^–1. […] A SpectraMax iD3 microplate reader (Molecular Devices, Sunnyvale, CA, USA) was used to control the experimental conditions (37 °C, orbital shaking at medium intensity) and to collect fluorescence data over 3 days. […] The emitted fluorescence was measured from the bottom of the microplate with medium photomultiplier tube sensitivity (PMT) settings and an integration time of 400 ms. […] The average fluorescence intensity of the peptide-free ThT sample was used as a background and subtracted from the average fluorescence intensity of the peptide-containing samples at each measurement point. The mean and standard deviation of ThT fluorescence intensities were plotted as a function of time using Origin software version 2022b and Excel software version 2020.

[2] = Atomic force microscopy of aggregation samples
Method: Ten μL aliquots were taken from the ThT and CD measurement samples at the end point of the experiments, after 3 days and 2 weeks of agitation, respectively. These aliquots were then spread on freshly cleaved mica surfaces and dried overnight in a vacuum desiccator. In some cases, the spread samples were washed with pH-adjusted water to remove any salts that might crystallize during the drying process and potentially complicate the AFM micrograph recording. The surface morphology was analyzed using a FlexAFM microscope system (Nanosurf AG, Liestal, Switzerland) operating in dynamic mode, controlled by Nanosurf control software C3000 version 3.10.4. Micrographs were taken using Tap150GD-G cantilevers (BudgetSensors Ltd., Sofia, Bulgaria) with a nominal tip radius of less than 10 nm. Prescreening was run before data collection to avoid significant height variations in the surface topology. Data collection was performed at different locations within each sample. Images were recorded with a maximum window size of 10 × 10 μm at a resolution of 512 pixels/line. Gwyddion 2.62 software was used to process the AFM data and generate the images.

[3] = Long-term aggregation monitored by CD spectroscopy; details: pH 7.4, 1 mg mL-1, 150 mM NaCl, 37 °C, 500 rpm, two weeks
Text: as §1, with “(APR) of the facing α-helix, while the similar −^21EFIAWL^26− helical segment of GLP-1 remains unshielded.” left out
Circular dichroism (CD) experiments were performed using JASCO J-810 and J-1500 spectropolarimeters. […] Melting curves were recorded in the temperature range of 5–85 °C in 5 °C increments. […] Exact concentrations were determined by using a Nanodrop Lite UV–vis spectrophotometer at 280 nm. To determine the folded fraction (F%), the temperature-dependent spectrum collection of 65 CD curves was analyzed using Convex Constraint Analysis Plus software.[59] […]

Substance	amyloid formation / aggregation propensity ([1]; ThT, CD and AFM, 37 °C, acidic and neutral pH, 1 and 5 mg mL–1)	fibril formation by AFM ([2]; 72 h agitated acidic ThT samples, 1 mg mL–1)	diameter of twisted amyloid fibrils ([2]; AFM, acidic conditions)	amyloid formation under neutral pH conditions [3]	thioflavin-T response under acidic conditions ([1]; ThT fluorescence, pH 4.2–4.5, 1 and 5 mg mL–1, 37 °C, orbital shaking, 3 days, triplicate)	time to amyloid fibril formation under acidic conditions ([1]; acidic conditions, concentration-dependent, 37 °C)
Exendin-4 [Ex4]	did not exhibit any evidence of amyloid formation					
glucagon-like peptide-1 [GLP-1]		reveal fibril formation	5–10 nm	forms amyloid assemblies under neutral pH conditions, albeit in two weeks	exceeded the limit of detection range	≤ 1 days
